Article PMC3961674, “Novel Ubiquitin-derived High Affinity Binding Proteins with Tumor Targeting Properties*” (The Journal of Biological Chemistry, 2014)

Biological target: 77405-MSA (77405 fused to mouse serum albumin) (human | mouse, UniProt P0CG48 1-76; P0CG48 1-76, Gln-2 to Arg | Phe-4 to Trp | Lys-6 to His | Gln-62 to Asn | Lys-63 to Pro | …)
Test: ELISA; 67B89 target or 6789 off-target coated on Medisorp 96-well plates; variant in serial dilutions, 1 h; detection with anti-Ubi-Fab-POD; apparent KD by hyperbolic fit
Conditions: both partners purified

B1: 67B89 (ED-B domain of fibronectin flanked by its N-terminal domains 6 and 7 and C-terminal domains 8 and 9) (domain or fragment)
chain: not shown
notes: fibronectin, UniProt P02751 isoform 7, residues 1080-1541 (domains 6, 7, ED-B, 8, 9); numbers count on: isoform 7; tag-free, from pET28a; gene synthesis; also called 67B89 target; ED-B target; source: E. coli HMS174 (DE3), purified (Q-Sepharose FF, ammonium sulfate precipitation, Phenyl HP, Q Sepharose HP)
Which Kd does the source give for B1 here?
The Kd was 0.58 nM.
